In patent US20060088847:

Tests used:
[1] = target: GST-B23 protein, P06748
[2] = target: Flag-p53, P04637
Chain of Flag-p53, P04637 (P04637 whole entry, looked up): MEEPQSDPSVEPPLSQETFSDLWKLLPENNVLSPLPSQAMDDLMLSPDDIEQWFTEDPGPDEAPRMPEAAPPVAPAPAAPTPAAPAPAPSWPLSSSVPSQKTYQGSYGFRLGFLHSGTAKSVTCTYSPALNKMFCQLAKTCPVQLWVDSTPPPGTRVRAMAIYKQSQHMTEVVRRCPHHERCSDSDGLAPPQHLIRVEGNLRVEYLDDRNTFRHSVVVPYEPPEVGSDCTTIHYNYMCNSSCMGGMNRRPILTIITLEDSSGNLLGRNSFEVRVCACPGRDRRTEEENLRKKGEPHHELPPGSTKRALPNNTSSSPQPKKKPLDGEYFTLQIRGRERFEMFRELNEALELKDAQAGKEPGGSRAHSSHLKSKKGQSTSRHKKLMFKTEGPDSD

Chain of GST-B23 protein, P06748 (P06748 whole entry): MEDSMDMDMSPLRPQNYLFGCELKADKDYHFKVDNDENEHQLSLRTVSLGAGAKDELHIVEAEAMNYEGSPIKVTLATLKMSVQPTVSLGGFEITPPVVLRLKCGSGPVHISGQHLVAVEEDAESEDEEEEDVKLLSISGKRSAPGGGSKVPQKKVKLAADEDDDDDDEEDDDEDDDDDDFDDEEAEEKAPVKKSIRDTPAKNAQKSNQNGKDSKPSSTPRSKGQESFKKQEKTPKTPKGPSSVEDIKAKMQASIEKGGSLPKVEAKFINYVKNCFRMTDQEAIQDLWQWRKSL

B1: GST-ARF-BP1 (3760-4374) (protein)
chain: IQAAVRQLEAEADAIIQMVREGQRARRQQQAATSESSQSEASVRREESPMDVDQPSPSAQDTQSIASDGTPQGEKEKEERPPELPLLSEQLSLDELWDMLGECLKELEESHDQHAVLVLQPAVEAFFLVHATERESKPPVRDTRESQLAHIKDEPPPLSPAPLTPATPSSLDPFFSREPSSMHISSSLPPDTQKFLRFAETHRTVLNQILRQSTTHLADGPFAVLVDYIRVLDFDVKRKYFRQELERLDEGLRKEDMAVHVRRDHVFEDSYRELHRKSPEEMKNRLYIVFEGEEGQDAGGLLREWYMIISREMFNPMYALFRTSPGDRVTYTINPSSHCNPNHLSYFKFVGRIVAKAVYDNRLLECYFTRSFYKHILGKSVRYTDMESEDYHFYQGLVYLLENDVSTLGYDLTFSTEVQEFGVCEVRDLKPNGANILVTEENKKEYVHLVCQMRMTGAIRKQLAAFLEGFYEIIPKRLISIFTEQELELLISGLPTIDIDDLKSNTEYHKYQSNSIQIQWFWRALRSFDQADRAKFLQFVTGTSKVPLQGFAALEGMNGIQKFQIHRDDRSTDRLPSAHTCFNQLDLPAYESFEKLRHMLLLAIQECSEGFGLA
NPM/B23 ubiquitination, in vitro ubiquitination assay [1]: no significant ubiquitination of NPM/B23 was detected by Western blot analysis with the anti-NPM/B23 antibody | p53 ubiquitination, in vitro ubiquitination assay with purified components [2]: high levels of ubiquitinated p53 were generated by ARF-BP1 (lane 2)
